Source: patent US20250388889A1 (priority 2019, published 2025)
Values joined by “and” are separate entries in the source; they are usually repeats but may differ in a detail not shown here. Identical values can stand only once. “Also recorded” adds a separate entry of the source. Marks after values point to notes of the source that are not given here.

Columns and labels:
c-MYC [1] = type: cell-based, human
[2] = tested on: A498 kidney epithelial cells; type: cell-based, human
CK1α1 [3] = type: cell-based, human
MB49 bladder tumors = conditions: mouse, in vivo
CK1α1 [4] = target: CK1α1 (Homo sapiens, UniProt P48729)
Chain of CK1α1 (Homo sapiens, UniProt P48729) (P48729 whole entry): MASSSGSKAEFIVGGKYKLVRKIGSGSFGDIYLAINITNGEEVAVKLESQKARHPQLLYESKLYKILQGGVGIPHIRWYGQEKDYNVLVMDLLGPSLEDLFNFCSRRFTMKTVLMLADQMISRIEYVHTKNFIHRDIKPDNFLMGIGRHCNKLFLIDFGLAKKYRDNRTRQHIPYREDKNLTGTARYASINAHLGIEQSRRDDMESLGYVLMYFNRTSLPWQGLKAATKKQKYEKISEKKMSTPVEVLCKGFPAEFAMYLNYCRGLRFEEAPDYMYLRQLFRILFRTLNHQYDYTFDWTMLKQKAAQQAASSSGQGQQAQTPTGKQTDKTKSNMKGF
Experimental: Kidney epithelial cells were stained with rabbit anti-c-MYC (Abcam), rabbit anti-CK1α1 (Cell Signaling Technology), rabbit anti-c-MYB (Sigma Aldrich), rabbit anti-CEBPD (Abcam) or mouse anti-his6-tag primary antibodies (1:200 in 5% FBS/PBS, overnight at 4° C.), followed by secondary goat anti-rabbit Alexa Fluor 488-conjugated or goat-anti mouse Alexa Fluor 568-conjugated antibodies (Molecular Probes, A-11034) (1:200 in 5% FBS and 0.025% Triton X-100/PBS, 1 hour at room temperature). Cells were counterstained with DRAQ5 (Abcam) and examined using a LSM 510 META laser scanning confocal microscope (Carl Zeiss). Fluorescence signal was quantified in 50 cells per condition using Image J.
Cells were lysed with NP-40 lysis buffer supplemented with protease and phosphatase inhibitors (Roche diagnostics). Proteins were run on SDS-PAGE (4-12% Bis-Tris gels, Invitrogen), blotted onto PVDF membranes (Biorad), blocked and stained with primary rabbit anti-c-MYC (1:1000, Abcam), rabbit anti-CK1α1 (1:1000, Cell Signaling Technology) or rabbit-anti-Lon (1:2000, Biorbyt) overnight at 4° C. Membranes were washed and stained with HRP-conjugated goat anti-rabbit HRP conjugated secondary antibodies (1:4000, Cell Signaling) washed again, imaged using ECL plus detection reagent (GE Healthcare) and quantified by ImageJ. β-actin was used as a loading control.

MAX [5] = target: T1, MAX (Homo sapiens, UniProt P61244); assay: In vitro degradation assay, MAX; type: biochemical
T1 sequence (P61244 whole entry, species assumed): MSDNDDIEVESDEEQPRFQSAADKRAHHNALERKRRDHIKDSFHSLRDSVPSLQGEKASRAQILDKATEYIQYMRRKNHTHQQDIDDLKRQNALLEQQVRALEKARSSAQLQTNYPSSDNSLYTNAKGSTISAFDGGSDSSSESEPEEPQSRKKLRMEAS
Experimental: (§1) 0.1 μg of recombinant proteins were incubated with 0.2 μg of Lon protease (Abcam, ab141921), or PBS, in a reaction buffer consisting of 20 mM MgCl2 in the presence of ATP (2 mM) in 50 mM Tris. pH 8.0. Proteins were incubated at 37° C. for 60, 120 or 240 minutes and were denatured using 10 mM DTT in NuPAGE Sample Buffer at 100° C. for 5 minutes before further analysis.

MAX [6] = target: T1, MAX; type: binding
Actin = type: biochemical
intestinal polyps = tested on: intestinal polyps; design: species or system C57BL/6J-APC^min/J mice; conditions: mouse, in vivo
CBEB1 = CBEB1 (Homo sapiens, UniProt Q9BZB8); assay: In vitro degradation assay, CPEB1; type: biochemical
Chain of CBEB1 (Q9BZB8 whole entry): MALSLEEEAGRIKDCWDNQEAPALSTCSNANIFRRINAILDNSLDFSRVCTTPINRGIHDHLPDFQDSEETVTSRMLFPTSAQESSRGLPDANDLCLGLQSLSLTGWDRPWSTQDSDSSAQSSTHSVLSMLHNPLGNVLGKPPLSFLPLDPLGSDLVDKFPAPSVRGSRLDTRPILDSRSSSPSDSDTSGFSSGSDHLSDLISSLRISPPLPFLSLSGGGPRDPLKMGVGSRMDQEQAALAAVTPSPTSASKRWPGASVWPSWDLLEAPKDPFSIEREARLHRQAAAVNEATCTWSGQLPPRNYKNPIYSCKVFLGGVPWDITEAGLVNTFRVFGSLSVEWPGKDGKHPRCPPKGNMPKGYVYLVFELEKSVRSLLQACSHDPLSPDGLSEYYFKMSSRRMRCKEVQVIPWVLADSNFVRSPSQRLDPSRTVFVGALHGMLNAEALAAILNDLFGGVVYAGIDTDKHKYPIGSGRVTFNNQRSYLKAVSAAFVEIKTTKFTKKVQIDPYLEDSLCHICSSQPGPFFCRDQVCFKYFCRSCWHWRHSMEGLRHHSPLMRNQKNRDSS
Experimental: as §1

c-MYC [7] = type: cell-based, human; remark: listed apart in the source
c-MYC [8] = target: T2, c-MYC (Homo sapiens, UniProt P01106); assay: In vitro degradation assay of recombinant c-MYC by Lon protease; type: biochemical
T2 construct: GST
T2 sequence (P01106 16-454): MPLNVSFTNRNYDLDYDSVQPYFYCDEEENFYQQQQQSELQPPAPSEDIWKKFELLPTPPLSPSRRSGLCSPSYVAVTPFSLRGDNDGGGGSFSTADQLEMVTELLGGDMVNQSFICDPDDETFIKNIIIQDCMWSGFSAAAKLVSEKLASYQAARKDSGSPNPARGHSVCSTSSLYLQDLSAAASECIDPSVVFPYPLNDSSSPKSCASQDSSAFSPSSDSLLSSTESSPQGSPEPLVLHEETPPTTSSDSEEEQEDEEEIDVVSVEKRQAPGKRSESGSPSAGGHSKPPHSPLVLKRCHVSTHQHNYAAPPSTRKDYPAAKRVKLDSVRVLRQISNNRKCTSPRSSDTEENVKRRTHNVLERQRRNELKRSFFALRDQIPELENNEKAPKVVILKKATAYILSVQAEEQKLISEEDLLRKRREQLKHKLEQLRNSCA
Experimental: […] Proteins were incubated at 37° C. for 60, 120 or 240 minutes and were denatured using 10 mM DTT in NuPAGE Sample Buffer at 100° C. for 5 minutes before further analysis.
Samples were diluted with NuPAGE LDS sample buffer (Invitrogen) mixed with 10 mM dithiotreitol (DTT) and incubated at 56° C. for 20 min followed by addition of iodoacetamide (IAA) to a final concentration of 20 mM. Samples were loaded on 4-12% NuPAGE (Invitrogen). The electrophoresis was run in MOPS buffer. The gel was Coomassie stained and bands of interest were excised from the SDS-PAGE and trypsin digested, followed by identification using LC-MS/MS as per above. MS/MS spectra were investigated with PEAKS (version 10) against UniProt Human (released 2020 Feb. 21) where the sequence for GST-tag-MYC had been added. The precursor tolerance and fragment tolerance were set to 10 ppm and 0.05 Da, respectively. None enzyme was selected, methionine oxidation and deamidation of asparagine and glutamine were treated as dynamic modification and carbamidomethylation of cysteine as a fixed modification.

[9] = mouse, in vivo
c-MYB = type: cell-based, human
CEBP-δ = type: cell-based, human
AKT = type: biochemical
GRP75 = GRP75 (Homo sapiens, UniProt P38646); assay: In vitro degradation assay, GRP75; type: biochemical
Chain of GRP75 (P38646 47-679, species assumed): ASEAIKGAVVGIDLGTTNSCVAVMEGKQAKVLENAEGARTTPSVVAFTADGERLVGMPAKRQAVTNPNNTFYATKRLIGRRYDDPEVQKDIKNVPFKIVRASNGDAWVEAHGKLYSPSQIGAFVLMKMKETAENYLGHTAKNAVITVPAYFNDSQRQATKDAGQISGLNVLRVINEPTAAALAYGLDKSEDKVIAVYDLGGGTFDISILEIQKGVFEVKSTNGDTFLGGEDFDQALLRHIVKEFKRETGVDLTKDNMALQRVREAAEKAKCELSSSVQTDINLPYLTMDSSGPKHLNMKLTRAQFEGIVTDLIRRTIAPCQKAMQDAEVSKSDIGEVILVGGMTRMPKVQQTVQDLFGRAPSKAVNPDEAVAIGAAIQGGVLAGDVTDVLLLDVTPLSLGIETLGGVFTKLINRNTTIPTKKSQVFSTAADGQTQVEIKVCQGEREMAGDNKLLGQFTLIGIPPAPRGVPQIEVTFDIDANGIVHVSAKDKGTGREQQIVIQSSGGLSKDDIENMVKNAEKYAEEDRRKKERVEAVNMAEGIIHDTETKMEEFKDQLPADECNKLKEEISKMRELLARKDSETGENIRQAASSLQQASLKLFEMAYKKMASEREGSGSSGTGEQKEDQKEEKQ
Experimental: as §1

[10] = mouse, in vivo; remark: listed apart in the source
HH3 = type: biochemical
CDK9 = CDK9 (Homo sapiens, UniProt P50750); assay: In vitro degradation assay, CDK9; type: biochemical
Chain of CDK9 (P50750 whole entry, species assumed): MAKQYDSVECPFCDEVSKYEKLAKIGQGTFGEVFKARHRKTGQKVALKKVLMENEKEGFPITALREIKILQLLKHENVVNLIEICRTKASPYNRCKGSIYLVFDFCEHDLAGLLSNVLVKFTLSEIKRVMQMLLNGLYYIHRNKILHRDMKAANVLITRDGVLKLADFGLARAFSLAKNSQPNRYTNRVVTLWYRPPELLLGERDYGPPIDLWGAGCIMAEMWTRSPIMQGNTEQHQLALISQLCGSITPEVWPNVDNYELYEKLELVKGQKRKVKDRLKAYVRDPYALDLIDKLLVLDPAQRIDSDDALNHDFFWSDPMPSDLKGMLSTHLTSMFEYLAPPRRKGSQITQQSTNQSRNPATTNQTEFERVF
Experimental: as §1

c-MYC [11] = target: T2, c-MYC; type: binding

Molecule: [Ca+2].[Cl-].[Cl-] [CaCl2]
- Effect of metal ion pretreatment of E. coli 536 on c-MYC inhibition (c-MYC [1]): no effect

Molecule: O=C(N/N=C/c1ccc(O)c(O)c1)c1cc2ccccc2cc1O [Dynasore]
- Lon protease staining and uptake after endocytosis inhibitor pre-treatment [2]: reduced Lon protease staining and uptake

Molecule: O=C(O)CN(CCOCCOCCN(CC(=O)O)CC(=O)O)CC(=O)O [EGTA, Egtazic acid]
- Effect on CK1α1 activation (CK1α1 [3]): inhibited the activation of CK1α1

Molecule: COc1cccc2c1C(=O)c1c(O)c3c(c(O)c1C2=O)C[C@@](O)(C(=O)CO)C[C@@H]3O[C@H]1C[C@H](N)[C@@H](O)[C@H](C)O1 [Epirubicin, reference compound]
- Bladder size % Sham (range) (MB49 bladder tumors): 65 (53-70)^b % Sham
- Bladder weight g^−1 (range) (MB49 bladder tumors): 3.9 (3.2-4.8)^b g^−1

Molecule: COc1cc(OC)c(C=C2C(O)=Nc3ccccc32)c(OC)c1 [IC261]
- Effect on c-MYC degradation in infected cells (CK1α1 [4]; 100 μg/ml, 30 minutes pre-treatment, E. coli 536): reduced c-MYC degradation
- Effect on c-MYB inhibition by E. coli 536 (CK1α1 [4]; 30 minutes): reversed c-MYB inhibition

Molecule: [Cl-].[Cl-].[Mg+2] [MgCl2]
- Effect of metal ion pretreatment of E. coli 536 on c-MYC inhibition (c-MYC [1]): no effect

Molecule: CO[C@@]12[C@H](COC(N)=O)C3=C(C(=O)C(C)=C(N)C3=O)N1C[C@@H]1N[C@@H]12 [Mitomycin, reference compound]
- Bladder size % Sham (range) (MB49 bladder tumors): 67 (54-87)^b % Sham
- Bladder weight g^−1 (range) (MB49 bladder tumors): 4 (3.4-5.9)^b g^−1

Molecule: [Cl][Mn][Cl] [MnCl2]
- Effect of metal ion pretreatment of E. coli 536 on c-MYC inhibition (c-MYC [1]): no effect

Molecule: O=c1c(O)c(-c2ccc(O)c(O)c2)oc2cc(O)cc(O)c12 [Quercetin]
- Lon protease staining and uptake after endocytosis inhibitor pre-treatment [2]: reduced Lon protease staining and uptake

Molecule: [Cl-].[Cl-].[Zn+2] [ZnCl2]
- Effect of metal ion pretreatment of E. coli 536 on c-MYC inhibition (c-MYC [1]): reversed c-MYC inhibition
- Effect of treating the active E. coli 536 supernatant on MYC levels in host cells (c-MYC [1]): did not affect MYC levels in host cells

B1: Lon protease: Recombinant bacterial (E. coli) ATP-dependent serine peptidase Lon, commercially produced in E. coli K12 (protein, UniProt P0A9M0 2-784, looked up)
Lon protease: NPERSERIEIPVLPLRDVVVYPHMVIPLFVGREKSIRCLEAAMDHDKKIMLVAQKEASTDEPGVNDLFTVGTVASILQMLKLPDGTVKVLVEGLQRARISALSDNGEHFSAKAEYLESPTIDEREQEVLVRTAISQFEGYIKLNKKIPPEVLTSLNSIDDPARLADTIAAHMPLKLADKQSVLEMSDVNERLEYLMAMMESEIDLLQVEKRIRNRVKKQMEKSQREYYLNEQMKAIQKELGEMDDAPDENEALKRKIDAAKMPKEAKEKAEAELQKLKMMSPMSAEATVVRGYIDWMVQVPWNARSKVKKDLRQAQEILDTDHYGLERVKDRILEYLAVQSRVNKIKGPILCLVGPPGVGKTSLGQSIAKATGRKYVRMALGGVRDEAEIRGHRRTYIGSMPGKLIQKMAKVGVKNPLFLLDEIDKMSSDMRGDPASALLEVLDPEQNVAFSDHYLEVDYDLSDVMFVATSNSMNIPAPLLDRMEVIRLSGYTEDEKLNIAKRHLLPKQIERNALKKGELTVDDSAIIGIIRYYTREAGVRGLEREISKLCRKAVKQLLLDKSLKHIEINGDNLHDYLGVQRFDYGRADNENRVGQVTGLAWTEVGGDLLTIETACVPGKGKLTYTGSLGEVMQESIQAALTVVRARAEKLGINPDFYEKRDIHVHVPEGATPKDGPSAGIAMCTALVSCLTGNPVRADVAMTGEITLRGQVLPIGGLKEKLLAAHRGGIKTVLIPFENKRDLEEIPDNVIADLDIHPVKRIEEVLTLALQNEPSGMQVVTAK
- Degradation of MAX in vitro (MAX [5]): not detected
- Pull-down of recombinant MAX (MAX [6]): Weak pull-down
- Degradation of Actin in vitro (Actin): not degraded
- Body weight at long-term follow up compared to sham (intestinal polyps): increase
- Cancer gene networks as share of all regulated genes (intestinal polyps): 93%
- Day until which mice remained asymptomatic (intestinal polyps): 175 days
- Intestinal polyp number at long-term follow up compared to sham (intestinal polyps): significant reduction
- MYC expression and MYC-dependent gene networks (intestinal polyps): inhibited
- Polyp number compared to sham and pre-treatment samples (intestinal polyps): reduced the polyp number
- Subset of colorectal cancer genes (intestinal polyps): 54%
- Survival (Kaplan Mayer plot) (intestinal polyps): increased survival
- Degradation of CBEB1 in vitro (CBEB1): not degraded
- c-MYC staining in human kidney cells (c-MYC [7]): dose-dependent decrease
- c-MYC degradation, comparative analysis of protein degradation (c-MYC [8]; FIG. 17i): degraded after 3 hours
- c-MYC remaining after Lon dependent degradation (c-MYC [8]; Recombinant c-MYC (1 μg) with Lon protease (2 μg), 37° C., 0 to 4 hours, from 200 ng, n=3): 79 ng
- Number of specific c-MYC peptides found after rLon degradation (LC-MS/MS) (c-MYC [8]; control sample 23 peptides): 10
- c-MYC sequence covered by specific peptides after rLon degradation (LC-MS/MS) (c-MYC [8]; control sample 51%): 23%
- c-MYC degradation in vitro (c-MYC [8]; recombinant c-MYC, kinetics): degrade recombinant c-MYC in vitro, in a time dependent manner
- MYC-related genes activated [9]: 1
- MYC-related genes inhibited [9]: 8
- Body weight and macroscopic appearance of organs ([9]; po): No change
- MYC expression in intestines ([9]; po): not regulated
- c-MYB decrease compared to PBS (c-MYB): 45%
- CEBP-δ degradation (CEBP-δ): < 5%
- Degradation of AKT in vitro (AKT): not degraded
- Bladder size % Sham (range) (MB49 bladder tumors): 69 (53-85)^a % Sham
- Bladder size, weight and pathology compared to day 12 (MB49 bladder tumors): remained unchanged
- Bladder weight g^−1 (range) (MB49 bladder tumors): 5.3 (3.9-6.3)^a g^−1
- Bladder weights and pathology scores versus sham (MB49 bladder tumors): remained lower than in the sham group
- Cancer gene networks as share of all regulated genes, compared to sham (MB49 bladder tumors): 96.6%
- Day until which mice remained asymptomatic (MB49 bladder tumors): 27 days and 34 days
- Efficiency compared with E. coli 536 supernatant (tumor progression, gene expression) (MB49 bladder tumors): more efficient
- Expression of genes potentially involved in toxicity, compared with E. coli 536-treated mice (MB49 bladder tumors): less strongly expressed
- Gene expression inhibited compared to the sham group (MB49 bladder tumors): 95%
- Mice with bladder tumors present (MB49 bladder tumors): 15/15
- Mice with hematuria (MB49 bladder tumors): 3/15 and 2/12
- Subset of bladder cancer related genes inhibited (MB49 bladder tumors): 11.8%
- Survival (Kaplan Meyer plot) (MB49 bladder tumors): increased survival
- Degradation of GRP75 in vitro (GRP75): not degraded
- Bladder weight and macroscopic appearance of the bladder [10]: No change
- MYC expression in bladders [10]: not regulated
- MYC-dependent genes activated [10]: 33
- MYC-dependent genes inhibited [10]: 1
- Degradation of HH3 in vitro (HH3): not degraded
- Degradation of CDK9 in vitro (CDK9): not degraded
- Binding to c-MYC by co-immunoprecipitation (c-MYC [11]): verified; also recorded: dose-dependent
- Cytotoxic effects in human kidney cells (human kidney cells): not detected
